These results are taken from article PMC6902690 (The FASEB Journal, 2019).

This test addresses factor H binding protein variant 1, recombinant (Neisseria meningitidis serogroup B …, UniProt Q9JXV4, strain). Nature of the test: Gyrolab immunoassay; biotinylated fHbp v1, v2 or v3 as capture reagent (100 µg/ml); Fabs at 10 µg/ml in Rexxip H; detection with goat anti-human IgG Fab fragment specific-Alexa 647 (25 nM); Bioaffy 200 CDs, 3-step method; positive when the fluorescent signal was higher than 10. As to conditions: both partners purified.

B1: huFab 1E6 (recombinant Fab produced in E. coli) (Fab, V domains shown)
VH: EVQLVQSGAEVKKPGSSVKVSCKASGGTVIDYPITWVRQAPGQGLEWVGGFVPLFRTSNYGQKFQGRVTITADKSTSTASMELNSLTSEDTAIYYCARGDTAMGPFDYWGQGTLVTVSS
VL: SYVLTQPPSLSVAPGKTATLTCGGNNIAGKTVHWYQQRPGQAPVLVISYDSDRPSGIPERFSGSNSANTATLTISRVEAGDEADYYCQVWDRNSDHWVFGGGTKLTVL
Take B1: the binding result is given as “binds”.
